Earlier results on one sequence are cited in article PMC7922473.

For the data set, the target named is PrPC (cellular prion protein) (UniProt P04156).

As a reminder, the Kd is the equilibrium constant for the complex coming apart. Turning to “CGGTGGGGCAATTTCTCCTACTGT [PrPC aptamer (PrPC-Apt)]”, the equilibrium dissociation constant (Kd) was 16 nM.
